# Source: patent US20160053277A1, “Compositions Having Dicamba Decarboxylase Activity and Methods of Use” (PIONEER HI-BRED INTERNATIONAL, INC., priority 2013, published 2016)
# Key:
# [1] = Saturation mutagenesis of SEQ ID NO:109: dicamba decarboxylation activity of point mutants (carbon dioxide released); settings: decarboxylation activity (carbon dioxide released) of point mutant compared with unmutated backbone protein; backbone SEQ ID NO: 109
# [2] = 14C assay with IPTG-induced recombinant E. coli cells: 14CO2 captured from [14C]-carboxyl-labeled dicamba; settings: for decarboxylation activity of dicamba: among the 108 sequences tested, recombinant E. coli cells; for Enzymatic Detection level: dicamba decarboxylation activity of the protein of the given SEQ ID NO, High / Low / No; for Dicamba Decarboxylase Activity: induced recombinant E. coli cells, [14C]-carboxyl-labeled dicamba, 14CO2 capture
Molecule,Fold Activity [1],decarboxylation activity of dicamba [2],Enzymatic Detection level [2],Dicamba Decarboxylase Activity [2]
"49 (protein, listed as Streptomyces sp.) MAKIIALEEHFSDPAVAKAGAARARALSPGFAASYSPASGLPYSPSPEVLENLAEKRLADMDAGGITMQVLSGLGAQTVPADVAPALVAGSNDKAAAAVRAHPDRFAAFAALPTATPEAAVAELDRSVNELGFVGTLIMGRTEGEFLDAPRFEPILARAAALKVPVFLHPGVPPREITDSNYAAGLPTGIGTRLQTAAWGWHQETAVHFLHLVHSGVLDRYPDLQFILGHWGEMIPFYLDRVDEALPQRATGLDRSFHEYFRENVYLAPSGMWSQAQLRFCLETVPLERIVFAVDYPFIGNEGAVPFLEKAELPQADKRKIAHENAERLLGL",2,showed decarboxylation activity of dicamba,High,High
"52 (protein, listed as Streptomyces sp.) MAKIIALEEHFSDPAVAKAGAARAQALSPGFAASYSPASGLPYSPSPEVLENLAEKRLADMDAGGITMQVLSGLSAQTVPADVAPALVAGSNDKAAAAVRAHPDRFAAFAALPTAAPEAAVAELDRSVNELGFVGTLIMGRTEGEFLDAPRFEPILARAAALKVPVFLHPGVPPREITDSNYAAGLPTGIGTRLQTAAWGWHQETAVHFLHLVHSGVLDRYPDLQFILGHWGETIPFYLDRVDEALPQRATGLDRSFHEYFRENVYLAPSGMWSQAQLRFCLETFPLERIVFAVDYPFIGNEGAVPFLEKAELPEADKRKIAHENAERLLGL",1.9,showed decarboxylation activity of dicamba,High,High
"54 (protein, listed as Streptomyces sp.) MAKIIALEEHFSDPAVAKAGAARAQALSPGFAASYSPASGLPYSPSPEVLENLAEKRLADMDAGGITMQVLSGLGAQTVPADVAPALVAGSNDKAAAAVRAHPDRFAAFAALPTAAPEAAVAELDRSINELGFVGTLIMGRTEGEFLDAPRFEPILARAAALKVPVFLHPGVPPREITDSNYAAGLPTGIGTRLQTAAWGWHQETAVHFLHLVHSGVLDRYPGLQFILGHWGEMIPFYLDRVDEALPQRATGLDRSFHEYFRENVYLAPSGMWSQAQLRFCLETVPLERIVFAVDYPFIGNEGAVPFLEKAELPEADKRKIAHENAERLLGL",1.4,showed decarboxylation activity of dicamba,High,High
"44 (protein, listed as Mycobacterium avium) MARIITVEEHFQHPEVSARVAELTGPAVEGLAEFGNAFSLDPDSTARLGGNRLAHMDQVGIDVQVVSHGNGSPGTLQHPEAVELCRRVNNDLAAQIAENPDRFRGFATLPLYDPAAAAEELRRCVGDLGFVGALIAGSYDGLFLDDERFDPILTAAEAVDFPIYVHPGLPEAPVSQRYYAGSWPASVHMMFSGPAFGWHAEAGIHIVRLILSGALDRHPTLKLLSGHWGELAAFYLERLDETLGLLPTGLERAPSDYYRQQVWITPSGMYNQNQLNFMTAELGAQRIIYSEDFPYVVRDNVSTFLEQAGLSEADTHAIAHTNAEALLRI",0.7,showed decarboxylation activity of dicamba,High,High
"50 (protein, listed as Streptomyces sp.) MARIVTLEEHWTDPAVTAAGMPNLLDHVPGYAAAFDPDTGMPYPRHPELLEDLGAARIADMDRHGITTQVLSLVNTFLPADVAPRLTAAANDAMAAAVEAFPGRFAAFATLPTAVPGAAADELRRCVGELGFVGTMIMGRTDGEFLDQPRFDPILRAASDLSVPVYLHPAPPPVAVSEASYAGGLSPAVSAAFRLAAWGWHQETAVHLLHLVLAGVLDRYPGLQFVLGHWGEFIPFYLDRLDESMPRRMTGLDRTFREYFRDNVFITPSGMFSQAQLRYCADTVGTDRIIHSVDFPMLGNEGAVSFLTDSHLSREDQEKIAHGNADALLGLG",1.7,showed decarboxylation activity of dicamba,High,High
"43 (protein, listed as Rhizobium leguminosarum) MAQGKIALEEHFAIPETLQDSAGFVPGDYWTELSARLLDIQDKRLRLMDTHGIEKMILSLNAPAVQAIPDKAKAVEISRRANDFLAEQCVKNPNRFLGFAALPLQDPDAATQELQRCVTTMGFVGALVNGFSQEGDGTTPLYYDLPQYRPFWAEVEKLDVPFYLHPRNPLPQDSRIYAGHSWLMGPTWAFAQETAVHALRLMGSGLFDEHPALRIIVGHMGEGLPYMMWRIDNRNAWVKVEKSYPAKRPIADYFNENFYITTSGNFRTQSLIDAMLEIGADRILFSADWPFENVDHAANWFDSATISEADRLKIGRTNAVSLFKLDR",1,showed decarboxylation activity of dicamba,High,High
"53 (protein, listed as Granulicella tundricola) MARTITLEEHFVTDSFLRATGAYDKPAPPWLAQLQPKLLDLGDGRIAAMDEAGIDLQVLSLAALGFDALDAATATPLVHDINDELAAAVRANPTRLAAFASLALKDPQSAARELERAIQKLGFRGVLLDGTTDGLFLDDPRFTPVFEAAVALNVPIYLHPAPPPESVFDTYFTGLPEGVGQMLSIAGWGWHAETALHTLRLITNGVFDRYPTLQLIIGHMGEMLPMALARTSKALSHAARLRQPVAAYFQSNIHLTTSGYFTQPPLRCALDVVGIDRLMFSIDYPFSANTLGRDYLTELEQTLTPEDLAKLIHRNAESLLNLS",1.6,showed decarboxylation activity of dicamba,High,High
"51 (protein, listed as Mycobacterium gilvum) MARVIAIEEHYAHPGLQPAEALANLRKHPQLARIQDKLEDLGAGRLADMDAAGIDMQVLSHTVPGAEALPAAQAVDVVRQTNDDLAEVIAAHPDRFAGFAALPMRDPQAAATELQRAVGTLGFCGAMINGLIEGRFLDHPDFTPLLSTAADLGVPLYLHPSFPPPQVAQIYFGGLPPVLADLLATAGWGWHAETALHVLRLISTGVFDRLPELRVIVGHMGEMIPFALARIDTVLSPMTELRQPVAQYFQTNVWFTTSGYTTFPPLQCALSTVGIDRLIFSVDYPYTDNASARALLDTAPISPVDREKLAHATVEALLRV",1.7,showed decarboxylation activity of dicamba,High,High
"48 (protein, listed as Amycolatopsis mediterranei) MASMKLYGLEEHFVTADVIEAWRRRDPGLAEPMMKWAVASDITPALLDVDGGRIAAMDDAGIDTTVLSLTTPGLQNLDAAEAVALQAPTNDLIAAAVRRHPGRFQGFATLATSAPAAAADELRRAVTELGLNGALVNANSRGRALDAPGFWDIYEAAEDLRAPVYLHPGVPVPAVTEAYYRGFGEPVNSMLATGAFGWHYDAGLTILRMIVAGVFDRFPGLQVILGHWGEVVLFYLDRVAAMDKLTALRRPIAEYFRSNIFITPGGISSHKYLRWSLETVGVERIMYASDYPFNTERAGSARRFLDTAPVDEAGRERIAYRNWEELIAGIRR",1.5,showed decarboxylation activity of dicamba,High,High
"46 (protein, listed as Rhodococcus opacus) MARIITLEEHYLDPAIAAASAPLARELSPDFAAAYDPASGLSYTPSAQVLQDLGQRRIADMDTHGISMQVLSCLTTQQVPADVAPDLVRAANDTAAAAVRAHPDRFAAFAALPTTAPDAAATELARCIDDLGFVGTMINGRTDGEFLDAPRFDPILATAAARNVPIYLHPAVPPRATSDSNYAGLAPLVTARLQTSAWGWHQETAVHFLHLVLSGVLDRYPNLQFILGHWGEMIPFYLDRLDEALPQAVTNLDRTISDYVRENVYITPSGMFNQAQLQYCVETLGVDRILYSVDYPFIGNDGAVSFLDEANLPDEAKHQIAHQNTEKLLGL",1.1,showed decarboxylation activity of dicamba,High,High
"47 (protein, listed as Serratia odorifera) MAKIICLEEHTLDKALVMASMPAALAQAPFLSDWGKTITDGNLPDRSRPQIEKNDLINVKGADIGRGRLDDMDEAGITMQVLSVGGFPHLISAAEGVDLNRAANDRLANAVNAHPDRFAAFATLPWAQPDAAEKELERAVKELGFKGALLNGRPSIHFLDHPDYDGLLARFNALGVPLYLHPGLPVRSVQQAYYSGFSDEVTARLSMFGWGWHHEAGIHLLRLILSGAFDKYPNLQVISGHWGEMLPFWLQRLDDSLPQAATGLRRTITQTFREQVYVTPSGMLTLPHFQFIYALLGAERILFSVDYPYQTLDGVKAFIQSLPVPEEAKEAIAFRNAERLFGLTS",1.2,showed decarboxylation activity of dicamba,High,High
"2 (protein, listed as Serratia sp.) MAKIICLEEHTLDKALVMASMPAALEQAPFLSDWGKTVTDGNLPDRSRPQIEKNDLINIKGADIGRGRLDDMDVAGITMQVLSVGGFPHLISAAEGVDLNRAANDRLADAVNAHPDRFAAFATLPWAQPDSAEKELERAVKELGFKGALLNGRPSTHFLDHPDYDGLLARFNALGVPLYLHPGLPVRSVQQAYYGGFSDEVTARLSMFGWGWHHEAGIHLLRLILSGAFDKYPNLQVISGHWGEMLPFWLQRLDDSLPQAATGLRRTIAQTFKEQVYVTPSGMLTLPHFQFIYALLGAERIIFSVDYPYQTLDGVKAFIQSLPVPEEAKEAIAFRNAERLLGLTS",1.1,showed decarboxylation activity of dicamba,High,High
